# Source: patent publication US20170368136
# Experiments:
# CN19 S12A = test system: T1, CN19 S12A
# T1 sequence: KRPPKLGQIGRAKRVVIED
# CN19 = test system: T2, CN19
# T2 sequence: KRPPKLGQIGRSKRVVIED
# CaMKII, sequence (chain): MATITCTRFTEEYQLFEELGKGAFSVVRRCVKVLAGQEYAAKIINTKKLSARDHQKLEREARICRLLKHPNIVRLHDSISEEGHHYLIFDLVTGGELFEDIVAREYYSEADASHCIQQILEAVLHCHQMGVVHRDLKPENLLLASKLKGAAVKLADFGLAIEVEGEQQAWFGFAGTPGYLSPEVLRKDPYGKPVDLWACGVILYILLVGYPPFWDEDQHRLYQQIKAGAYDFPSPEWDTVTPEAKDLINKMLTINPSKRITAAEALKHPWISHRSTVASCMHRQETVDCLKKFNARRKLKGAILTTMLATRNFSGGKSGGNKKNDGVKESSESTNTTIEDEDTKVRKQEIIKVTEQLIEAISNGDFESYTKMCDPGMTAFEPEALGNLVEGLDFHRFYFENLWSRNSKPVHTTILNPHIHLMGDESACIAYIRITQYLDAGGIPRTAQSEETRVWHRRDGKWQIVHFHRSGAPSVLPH
Substance,phosphate incorporation by PKC (CN19 S12A),phosphorylation rate by PKC relative to a MARCKS peptide substrate (CN19),AC2 substrate phosphorylation by CaMKII (CN21b),AC2 substrate phosphorylation by CaMKII (CN21c),"MAP2 phosphorylation by CaMKII (Western), 5 µM peptide (CN21c)",CaMKII substrate- and auto-phosphorylation (Western) (CaM-KIIN)
PKC,CN19 but not its S12A mutant was phosphorylated by PKC,with a phosphorylation rate of >50% compared to a peptide derived from a major PKC substrate protein,–,–,–,–
CaMKII,–,–,"The other 21mer peptides, CN21b and CN21c, had minimal or no effect","The other 21mer peptides, CN21b and CN21c, had minimal or no effect",Only CN21c failed to block MAP2 phosphorylation,CaM-KIIN and CN21 block substrate- and T305 but not T286 auto-phosphorylation
